Data: PMC8429771

Assays:
[1] = target: Native bovine (β, γ)-actin, P60712;P63258; test: TIRFM single-filament re-growth assay after CP washout (mono-exponential fit); conditions: Cy5-UTRN261N (10 nM), profilin-actin (2 μM), myotrophin/V1 (20 nM) after CP washout
[2] = target: Native bovine (β, γ)-actin, P60712;P63258; test: TIRFM (KD calculated from koff and kon)
[3] = target: Native bovine (β, γ)-actin, P60712;P63258; test: single molecule TIRFM assay (linear fit of kobs against CP concentration); conditions: Cy5-UTRN261N (10 nM), profilin-actin (2 μM), TMR-CP
[4] = target: Actin (Homo sapiens) (UniProt P60709); conditions: cited from earlier work

| koff [1] [s^-1·10^-3] | Kd [2] [nM] | kon [3] [M⁻¹ s⁻¹] | Substance | Kd [4] [nM] |
| --- | --- | --- | --- | --- |
| 2.6 | 0.3 | 8.68e+06 | Murine heterodimeric capping protein (α1, β2), wildtype (from UniProt P47753;P47757-2) αY277V | – |
| – | – | – | Profilin (from UniProt P07737) | 19 |
